Results published in the supplement of paper PMC7125110.
± gives the standard error. Variants at the floor of the assay were thinned out.

B1: glmS ribozyme (parent)
chain: AUAAAAGCGCCAGAACUACAGAAAUGUAGUUGACGAGGAGGAGGUUUAUCGAAUUUUCGGCGGAUGCCUCCAAA

What was measured:
Settings in all cases: with glucosamine-6-phosphate
[1] = variants of: B1; test: self-cleavage kobs at 40 uM GlcN6P; higher = faster cleavage; RNA array
How it was run: (§1)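 Barcoded ribozyme variants on sequenced MiSeq chips were transcribed in situ by E. coli RNA polymerase and followed at 37 °C through a hybridised Cy3 probe. Glucosamine-6-phosphate at 40 μM to 10 mM in HEPES/KCl/Mg(OAc)2 buffer was flowed in, and tiles were imaged over ~14 h. Signals were normalised to baseline and to non-cleaving reference variants, and per-tile medians were fit to one- or two-exponential decays to give kobs. Weighted Michaelis–Menten fits across concentrations gave kcat and KM.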

[2] = variants of: B1; test: self-cleavage kobs at 160 uM GlcN6P; higher = faster cleavage; RNA array
How it was run: as §1

[3] = variants of: B1; test: self-cleavage kobs at 640 uM GlcN6P; higher = faster cleavage; RNA array
How it was run: as §1

[4] = variants of: B1; test: self-cleavage kobs at 2500 uM GlcN6P; higher = faster cleavage; RNA array
How it was run: as §1

[5] = variants of: B1; test: self-cleavage kobs at 10000 uM GlcN6P; higher = faster cleavage; RNA array
How it was run: as §1

Variant	self-cleavage kobs at 40 uM GlcN6P [1] [s⁻¹]	self-cleavage kobs at 160 uM GlcN6P [2] [s⁻¹]	self-cleavage kobs at 640 uM GlcN6P [3] [s⁻¹]	self-cleavage kobs at 2500 uM GlcN6P [4] [s⁻¹]	self-cleavage kobs at 10000 uM GlcN6P [5] [s⁻¹]
A14U G41C C70G	0.000998 ± 0.00029	0.00172 ± 0.00056	0.00931 ± 0.0023	0.0459 ± 0.018	0.0658 ± 0.026
A15C C61A	< 1e-05	–	–	–	< 1e-05
G13U A53G G63A C68U	< 1e-05	–	–	–	< 1e-05
C16G A36U C50G C68G	0.000149 ± 4.4e-05	0.000256 ± 4.1e-05	0.000979 ± 0.00021	–	0.000404 ± 7.1e-05
A12G C58U	< 1e-05	–	–	1.67e-05 ± 7.9e-06	6.35e-05 ± 8.1e-06
C16A G35C	< 1e-05	< 1e-05	< 1e-05	< 1e-05	< 1e-05
A12C C34G	< 1e-05	< 1e-05	–	–	< 1e-05
G29C C50G	5.44e-05 ± 1.3e-05	0.000194 ± 5.9e-05	0.000208 ± 4.9e-05	0.000178 ± 3.6e-05	2.54e-05 ± 1.1e-05
G29U A42G G43A	< 1e-05	–	–	–	–
A14G U31C G41C G63A	< 1e-05	–	–	–	< 1e-05
A12U A53G	0.00255 ± 0.00025	0.00496 ± 0.00086	0.0163 ± 0.0025	–	0.125 ± 0.023
A15U G59C A64C	< 1e-05	–	–	–	–
A12U A52G C67U	7.05e-05 ± 1.6e-05	–	–	–	0.00179 ± 0.00037
A15G U46G A48U G59A	< 1e-05	< 1e-05	–	< 1e-05	< 1e-05
A14C G35U C70U	< 1e-05	–	–	–	< 1e-05
C16A G29A A36U U65A C71U	< 1e-05	–	< 1e-05	–	–
A14G C34U C68G	0.000349 ± 0.00016	–	–	–	5.07e-05 ± 2e-05
A14U G63U A64U	< 1e-05	–	–	–	–
A15U C34A A64U C68A	< 1e-05	–	–	–	< 1e-05
A15U U31C C50G	5.26e-05 ± 2.5e-05	–	–	–	–
A12G C16A A36G U69C	< 1e-05	–	–	–	–
A12C C50G	5.75e-05 ± 1.5e-05	0.000244 ± 8.9e-05	5.32e-05 ± 1.5e-05	8.38e-05 ± 1.9e-05	–
G13C U49G G60U C70G	< 1e-05	–	–	–	–
A14C C71U	0.000147 ± 1.3e-05	0.000353 ± 3.7e-05	0.000938 ± 9.2e-05	0.00483 ± 0.00086	0.00794 ± 0.00094

Variant	self-cleavage kobs at 40 uM GlcN6P [1] [s⁻¹]	self-cleavage kobs at 160 uM GlcN6P [2] [s⁻¹]	self-cleavage kobs at 640 uM GlcN6P [3] [s⁻¹]	self-cleavage kobs at 2500 uM GlcN6P [4] [s⁻¹]	self-cleavage kobs at 10000 uM GlcN6P [5] [s⁻¹]
A14U G37U G59U C61A	< 1e-05	–	–	–	–
A12U A42U G59C	< 1e-05	–	–	–	–
G29U U54G C58U U69G	6.42e-05 ± 2.3e-05	–	–	–	–
A12C G29A G35C A52U U54A G60U C67G	< 1e-05	–	–	–	–
A12U U54A	0.00273 ± 0.00049	0.00304 ± 0.00084	0.0221 ± 0.0044	0.0233 ± 0.0078	0.121 ± 0.059
G13C A39G A64U	< 1e-05	–	–	< 1e-05	–
A12G G13C A33U G63U	< 1e-05	–	–	–	< 1e-05
G13A A36G	< 1e-05	< 1e-05	< 1e-05	< 1e-05	< 1e-05
A15C A48G U69G	< 1e-05	–	–	–	< 1e-05
U30A A39G	0.000182 ± 2.7e-05	0.000615 ± 0.00023	0.00306 ± 0.0014	–	0.0319 ± 0.014
A12G G32C G37U C71G	< 1e-05	–	–	–	–
A12C U45G	0.000128 ± 4.1e-05	–	–	–	0.012 ± 0.004
A12U C50G G59U U69C	0.000143 ± 4.1e-05	–	–	8.19e-05 ± 3e-05	0.000187 ± 4.7e-05
A14C G43C	< 1e-05	–	< 1e-05	< 1e-05	–
G13U C50A	< 1e-05	–	–	–	–
C16G G35C	< 1e-05	–	< 1e-05	< 1e-05	< 1e-05
A14G C68U	0.000235 ± 1.9e-05	0.000503 ± 6.4e-05	0.00222 ± 0.00018	0.00412 ± 0.00051	0.0159 ± 0.0026
A12G C50A	< 1e-05	–	–	–	< 1e-05
G29C U45A	7.41e-05 ± 2.6e-05	–	0.000828 ± 0.00023	0.000499 ± 0.00024	0.00281 ± 0.00086
A12G C50U G59U G60A	< 1e-05	–	–	–	< 1e-05
A14G U54A G59A	< 1e-05	–	–	8.37e-05 ± 2.7e-05	0.000121 ± 3.2e-05
C16G A48C	< 1e-05	< 1e-05	< 1e-05	–	4.28e-05 ± 1.7e-05
A15U G43U U54C G60C C70G	< 1e-05	–	–	–	< 1e-05
C16G A48G C68U	< 1e-05	–	–	–	< 1e-05
